Article PMC3087822 (Nature structural & molecular biology, 2011)

What was measured:
[1] = molecular target: rat Munc13-1(859–1407,1453–1531) fragment (MUN*) (rat) (UniProt Q62768); assay: NMR titration
[2] = molecular target: cytoplasmic domain (residues 2–253) of rat syntaxin-1A (rat, UniProt P32851 2-253); assay: SEC

| Molecule | Kd [1] [µM] | binding result [2] |
| --- | --- | --- |
| Munc18-1–SNARE complex assembly (Munc18-1 plus SNARE complex as titrated on 15N-MUN*) (from UniProt P32851;P63045;P60880) | 13 |  |
| human SNAP25 (residues 11–82) (domain or fragment) LEEMQRRADQLADESLESTRRMLQLVEESKDAGIRTLVMLDEQGEQLERIEEGMDQINKDMKEAEKNLTDLG |  | binds |
